{"source": "paper PMC11589680", "about": "(Nature Communications, 2024)", "binders": {"B1": {"name": "GST-SNX17 (natural protein)", "chain": "MHFSIPETESRSGDSGGSAYVAYNIHVNGVLHCRVRYSQLLGLHEQLRKEYGANVLPAFPPKKLFSLTPAEVEQRREQLEKYMQAVRQDPLLGSSETFNSFLRRAQQETQQVPTEEVSLEVLLSNGQKVLVNVLTSDQTEDVLEAVAAKLDLPDDLIGYFSLFLVREKEDGAFSFVRKLQEFELPYVSVTSLRSQEYKIVLRKSYWDSAYDDDVMENRVGLNLLYAQTVSDIERGWILVTKEQHRQLKSLQEKVSKKEFLRLAQTLRHYGYLRFDACVADFPEKDCPVVVSAGNSELSLQLRLPGQQLREGSFRVTRMRCWRVTSSVPLPSGSTSSPGRGRGEVRLELAFEYLMSKDRLQWVTITSPQAIMMSICLQSMVDELMVKKSGGSIRKMLRRRVGGTLRRSDSQQAVKSPPLLESPDATRESMVKLSSKLSAVSLRGIGSPSTDASASDVHGNFAFEGIGDEDL"}, "B2": {"name": "untagged full-length SNX17 (natural protein)", "chain": "B1 chain"}, "B3": {"name": "GST-SNX17 CT tail, −4 position to N (peptide)", "chain": "ASASDVHGNFAFEGIGNEDL"}, "B4": {"name": "GST-SNX17 CT tail, −4 position to Q (peptide)", "chain": "ASASDVHGNFAFEGIGQEDL"}, "B5": {"name": "GST-tagged CT tail of LRMDA (last 20 amino acids) (peptide)", "chain": "RYVYYGKNSEGNRFIRDDQL"}, "B6": {"name": "GST-SNX17 CT tail, −6 position to L (peptide)", "chain": "ASASDVHGNFAFEGLGDEDL"}, "B7": {"name": "GST-tagged CT tail of SNX31 (last 20 amino acids) (peptide)", "chain": "SKIKIAKDDCVFGNIKEEDL"}, "B8": {"name": "GST-tagged CT tail of PATE1 (last 20 amino acids) (peptide)", "chain": "SVYLVNFRCCRSHDLCNEDL"}, "B9": {"name": "GST-SNX17 CT tail, −6 position to V (peptide)", "chain": "ASASDVHGNFAFEGVGDEDL"}, "B10": {"name": "GST-SNX17 CT (GST-tagged tail peptide, last 20 residues of SNX17) (peptide)", "chain": "ASASDVHGNFAFEGIGDEDL"}}}
{"target": "T1, Retriever complex (VPS35L, VPS26C, VPS29) (human, UniProt Q7Z3J2;O14972;Q9UBQ0-2)", "T1 sequence (Q7Z3J2 whole entry, chain 1 of 2)": "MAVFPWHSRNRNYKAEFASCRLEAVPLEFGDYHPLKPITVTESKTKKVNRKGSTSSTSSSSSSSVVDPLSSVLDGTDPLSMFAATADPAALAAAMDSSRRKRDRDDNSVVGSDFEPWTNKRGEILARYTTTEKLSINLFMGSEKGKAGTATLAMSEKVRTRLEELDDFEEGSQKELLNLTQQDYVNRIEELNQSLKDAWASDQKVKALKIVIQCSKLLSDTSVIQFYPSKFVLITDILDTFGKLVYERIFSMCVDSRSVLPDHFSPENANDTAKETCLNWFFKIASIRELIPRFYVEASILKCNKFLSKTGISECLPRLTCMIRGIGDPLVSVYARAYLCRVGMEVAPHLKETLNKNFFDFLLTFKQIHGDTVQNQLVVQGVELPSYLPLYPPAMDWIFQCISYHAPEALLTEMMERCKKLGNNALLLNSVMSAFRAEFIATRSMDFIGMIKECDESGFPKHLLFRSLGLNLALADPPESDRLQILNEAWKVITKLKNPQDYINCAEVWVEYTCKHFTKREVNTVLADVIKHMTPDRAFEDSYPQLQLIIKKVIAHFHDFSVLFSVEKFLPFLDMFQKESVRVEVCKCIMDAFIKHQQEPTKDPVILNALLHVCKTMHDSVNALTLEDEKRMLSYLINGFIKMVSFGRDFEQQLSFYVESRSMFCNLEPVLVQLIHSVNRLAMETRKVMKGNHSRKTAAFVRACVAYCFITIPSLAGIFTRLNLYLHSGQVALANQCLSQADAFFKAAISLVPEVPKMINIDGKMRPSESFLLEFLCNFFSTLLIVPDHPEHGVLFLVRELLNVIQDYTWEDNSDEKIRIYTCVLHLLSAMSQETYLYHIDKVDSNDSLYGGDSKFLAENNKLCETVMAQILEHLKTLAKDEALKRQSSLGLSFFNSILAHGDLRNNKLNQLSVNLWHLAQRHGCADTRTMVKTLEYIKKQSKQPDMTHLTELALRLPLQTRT", "T1 sequence (O14972 whole entry, chain 2 of 2)": "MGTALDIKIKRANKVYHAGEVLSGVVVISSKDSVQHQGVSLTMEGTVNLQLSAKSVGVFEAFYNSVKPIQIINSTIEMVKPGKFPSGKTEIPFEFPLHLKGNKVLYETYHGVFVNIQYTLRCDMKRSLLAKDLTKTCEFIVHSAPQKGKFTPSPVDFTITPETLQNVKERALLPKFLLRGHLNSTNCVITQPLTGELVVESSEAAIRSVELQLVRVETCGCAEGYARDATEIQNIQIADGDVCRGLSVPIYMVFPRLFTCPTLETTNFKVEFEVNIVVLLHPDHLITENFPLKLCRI", "experiment": "pull-down"}
{"binder": "B1", "binding result": "binds"}
{"binder": "B2", "binding result": "binds"}
{"binder": "B3", "binding result": "binds"}
{"binder": "B4", "binding result": "binds"}
{"binder": "B5", "binding result": "binds"}
{"binder": "B6", "binding result": "binds"}
{"binder": "B7", "binding result": "binds"}
{"binder": "B8", "binding result": "binds"}
{"binder": "B9", "binding result": "binds"}
{"target": "T1, Retriever complex (VPS35L, VPS26C, …)", "experiment": "equilibrium pull-down", "units": {"Kd": "nM"}}
{"binder": "B10", "Kd": "~110"}
